Assay results: paper PMC11503464, “Copper-61 is an advantageous alternative to gallium-68 for PET imaging of somatostatin receptor-expressing tumors: a head-to-head comparative preclinical study” (Frontiers in Nuclear Medicine, 2024)

Columns and labels:
[1] = mouse, in vivo; cited from earlier work
[2] = in vivo; cited from earlier work
in vivo = details: female, athymic nude-Foxn1^nu/Foxn1^+, mouse, 200 pmol, total radioactivity

For “[^68Ga]Ga-DOTA-Tyr^3-octreotate [[^68Ga]Ga-DOTA-TATE]”, the Kidney dose [1] is given as 9.01 × 10^−2 mGy/MBq, the Total-body absorbed dose [1] is given as 1.27 × 10^−3 mGy/MBq and the Effective dose [2] is given as 0.021-0.0257 mSv/MBq.
`C[C@@H](O)[C@@H]1NC(=O)[C@H](CCCCN)NC(=O)[C@@H](Cc2c[nH]c3ccccc23)NC(=O)[C@H](Cc2ccc(O)cc2)NC(=O)[C@@H](NC(=O)[C@@H](Cc2ccccc2)NC(=O)CN2CCN(CC(=O)O)CCN(CC(=O)O)CCN(CC(=O)O)CC2)CSSC[C@@H](C(=O)N[C@H](CO)[C@@H](C)O)NC1=O` [[^61Cu]Cu-DOTA-TOC, metal not drawn] showed a tissue uptake at 1 h (in vivo; Adrenal uptake) of 2.05 ± 0.58 %ID/g, a tissue uptake at 4 h (in vivo; Adrenal uptake) of 1.14 ± 0.5 %ID/g and a tissue uptake at 1 h (in vivo; Blood uptake) of 0.38 ± 0.09 %ID/g. The tissue uptake at 4 h (in vivo; Blood uptake) was 0.21 ± 0.04 %ID/g, the tissue uptake at 1 h (in vivo; Bone uptake) was 0.6 ± 0.16 %ID/g and the tissue uptake at 4 h (in vivo; Bone uptake) was 0.5 ± 0.19 %ID/g. For the same compound, the tissue uptake at 4 h (in vivo; Heart uptake) was 0.49 ± 0.06 %ID/g, the tissue uptake at 4 h (in vivo; Intestine uptake) was 2.06 ± 0.92 %ID/g and the tissue uptake at 1 h (in vivo; Kidneys uptake) was 5.32 ± 0.58 %ID/g. It also gave a tissue uptake at 4 h (in vivo; Kidneys uptake) of 2.33 ± 0.39 %ID/g, a tissue uptake at 4 h (in vivo; Liver uptake) of 2.52 ± 0.56 %ID/g and a tissue uptake at 1 h (in vivo; Lung uptake) of 1.96 ± 0.16 %ID/g. For the same compound, the tissue uptake at 4 h (in vivo; Lung uptake) was 1.25 ± 0.08 %ID/g, the tissue uptake at 4 h (in vivo; Muscle uptake) was 0.16 ± 0.08 %ID/g and the tissue uptake at 1 h (in vivo; Pancreas uptake) was 4.29 ± 0.5 %ID/g. For the same compound, the tissue uptake at 4 h (in vivo; Pancreas uptake) was 0.68 ± 0.07 %ID/g, the tissue uptake at 1 h (in vivo; Pituitary uptake) was 3 ± 1.32 %ID/g and the tissue uptake at 4 h (in vivo; Pituitary uptake) was 2.43 ± 1.27 %ID/g. For the same compound, the tissue uptake at 1 h (in vivo; SST2-tumor uptake) was 7.44 ± 2.33 %ID/g, the tissue uptake at 4 h (in vivo; SST2-tumor uptake) was 6.85 ± 2.48 %ID/g and the tissue uptake at 1 h (in vivo; Spleen uptake) was 0.55 ± 0.08 %ID/g. For the same compound, the tissue uptake at 4 h (in vivo; Spleen uptake) was 0.37 ± 0.09 %ID/g, the tissue uptake at 1 h (in vivo; Stomach uptake) was 4.34 ± 0.5 %ID/g and the tissue uptake at 4 h (in vivo; Stomach uptake) was 2.09 ± 0.5 %ID/g.
